Source: patent US5847077, “Fungal multisubunit protein complex critical for expression of fungal proteins” (University of Massachusetts Medical Center, dated 1998)

Key:
[1] = molecular target: T1, S. cerevisiae TATA-box Binding Protein (yTBP) (S. cerevisiae, UniProt P13393); test: Far Western blot of the hydroxylapatite fraction probed with 35S-labelled yTBP
T1 sequence: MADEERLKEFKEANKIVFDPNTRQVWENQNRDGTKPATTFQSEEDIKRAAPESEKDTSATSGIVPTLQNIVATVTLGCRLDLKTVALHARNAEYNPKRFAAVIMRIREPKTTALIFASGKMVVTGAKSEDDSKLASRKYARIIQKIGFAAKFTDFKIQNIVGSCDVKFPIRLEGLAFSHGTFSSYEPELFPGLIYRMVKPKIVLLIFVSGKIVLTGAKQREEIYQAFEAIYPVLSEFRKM
Protocol: (§1) The hydroxylapatite fraction was separated by SDS-PAGE and transferred to Immobilon-P membranes, and blocked in buffer T (0.2M KOAc) containing 0.01% (v/v) NP-40 and 4% BSA for 3 hr at room temperature followed by 2 hr at […]. ^35S-labeled yTBP and hTBP and its mutant derivatives (Ha, I. et al. Genes & Dev. 7, 1021–1032 (1993)) were synthesized in rabbit reticulocyte lysate and wheat germ extract, respectively, and were diluted in incubation buffer (buffer T (0.2) plus 0.01% (v/v) NP-40 and 0.5% BSA). […] The membrane was incubated with probe at […] for 14–18 min, twice in incubation buffer without BSA for 15 min, and rinsed in buffer T (0.2) lacking glycerol for 20 sec. The membrane was air dried, and exposed directly to film for 8–24 hr.
(§2) To identify this subunit, the yTAF complex was examined for TBP binding using an immobilized protein blotting ("Far Western") assay. The hydroxylapatite fraction was fractionated by SDS-PAGE, the polypeptides transferred to nitrocellulose, and the membrane probed with ^35S-labeled yTBP.

[2] = molecular target: human TATA-box Binding Protein (hTBP) (human, UniProt P20226); test: Far Western blot of the hydroxylapatite fraction probed with 35S-labelled human TBP
Protocol: as §1, §2

B1: yeast TAF-90 (yTAF90), the 90 kD polypeptide of the yTAF complex (other)
chain: MSQKQSTNQNQNGTHQPQPVKNQRTNNAAGANSGQQPQQQSQGQSQQQGRSNGPFSASDLNRIVLEYLNKKGYHRTEAMLRAESGRTLTPQNKQSPANTKTGKFPEQSSIPPNPGKTAKPISNPTNLSSKRDAEGGIVSSGRLEGLNAPENYIRAYSMLKNWVDSSLEIYKPELSYIMYPIFIYLFLNLVAKNPVYARRFFDRFSPDFKDFHGSEINRLFSVNSIDHIKENEVASAFQSHKYRITMSKTTLNLLLYFLNENESIGGSLIISVINQHLDPNIVESVTAREKLADGIKVLSDSENGNGKQNLEMNSVPVKLGPFPKDEEFVKEIETELKIKDDQEKQLNQQTAGDNYSGANNRTLLQEYKAMNNEKFKDNTGDDDKDKIKDKIAKDEEKKESELKVDGEKKDSNLSSPARDILPLPPKTALDLKLEIQKVKESRDAIKLDNLQLALPSVCMYTFQNTNKDMSCLDFSDDCRIAAAGFQDSYIKIWSLDGSSLNNPNIALNNNDKDEDPTCKTLVGHSGTVYSTSFSPDNKYLLSGSEDKTVRLWSMDTHTALVSYKGHNHPVWDVSFSPLGHYFATASHDQTARLWSCDHIYPLRIFAGHLNDVDCVSFHPNGCYVFTGSSDKTCRMWDVSTGDSVRLFLGHTAPVISIAVCPDGRWLSTGSEDGIINVWDIGTGKRLKQMRGHGKNAIYSLSYSKEGNVLISGGADHTVRVWDLKKATTEPSAEPDEPFIGYLGDVTASINQDIKEYGRRRTVIPTSDLVASFYTKKTPVFKVKFSRSNLALAGGAFRP
binding result [1]: no binding

B2: yeast TAF-145 (yTAF145), the 145 kD polypeptide of the yTAF complex (other)
chain: MVKQQGSGKTNLANEDEAYEAIFGGEFGSLEIGSYIGGDEGANSKDYTEHLPDAVDFEDEDELADDDDDLPEESDANLHPAMMTMGAYDDVNENGAVLGIDSNSLNMQLPEINGDLSQQFILEDDGGTPATSNALFMGMDANEIHLATETGVLDGSGANEIGHSQLSIGGVNGNDMSINGGFIMEPDMSDGKHKKATKLDLINHEKYLLKKYFPDFEKGKILKWNKLIYRRSVPYHWHSEISRVKKPFMPLNLKFKVQQDDKRLFNSRTISYVAPIYQGKNNLLQSNSSASRRGLIHVSIDELFPIKEQQKKRKIIHDEKTISEDLLIATDDWDQEKIINQGTSSTATLADSSMTPNLKFSGGYKLKSLIEDVAEDWQWDEDMIIDAKLKESKHAELNMNDEKLLLMIEKTNNLAQQKQQLDSSNLILPLNETILQQKFNLSNDDKYQILKKTHQTKVRSTISNLNIQHSQPAINLQSPFYKVAVPRYQLRHFHRENFGSHIRPGTKIVFSKLKARKRKRDKGKDVKESFSTSQDLTIGDTAPVYLMEYSEQTPVALSKRGMANKLINYYRKANEQDTLRPKLPVGETHVLGVQDKSPFWNFGFVEPGHIVPTLYNNMIRAPVFKHDISGTDFLLTKSSGFGISNRFYLRNINHLFTVGQTFPVEEIPGPNSRKVTSMKATRLKMIIYRILNHNHSKAISIDPIAKHFPDQDYGQNRQKVKEFMKYQRDGPEKGLWRLKDDEKLLDNEAVKSLITPEQISQVESMSQGLQFQEDNEAYNFDSKLKSLEENLLPWNITKNFINSTQMRAMIQIHGVGDPTGCGEGFSFLKTSMKGGFVKSGSPSSNNNSSNKKGTNTHSYNVAQQQKAYDEEIAKTWYTHTKSLSISNPFEEMTNPDEINQTNKHVKTDRDDKKILKIVRKKRDENGIIQRQTIFIRDPRVIQGYIKIKEQDKEDVNKLLEEDTSKINNLEELEKQKKLLQLELANLEKSQQRRAARQNSKRNGGATRTENSVDNGSDLAGVTDGKAARNKGKNTTRRCATCGQIGHIRTNKSCPMYSSKDNPASPK
binding result [1]: binds
binding result [2]: binds
